Results from publication PMC6915745, “TRIB3 supports breast cancer stemness by suppressing FOXO1 degradation and enhancing SOX2 transcription” (Nature Communications, 2019).

Target: T1, TRIB3-GST protein (Homo sapiens, UniProt Q96RU7)
T1 construct: purchased Sino, China
T1 sequence (Q96RU7 1-358): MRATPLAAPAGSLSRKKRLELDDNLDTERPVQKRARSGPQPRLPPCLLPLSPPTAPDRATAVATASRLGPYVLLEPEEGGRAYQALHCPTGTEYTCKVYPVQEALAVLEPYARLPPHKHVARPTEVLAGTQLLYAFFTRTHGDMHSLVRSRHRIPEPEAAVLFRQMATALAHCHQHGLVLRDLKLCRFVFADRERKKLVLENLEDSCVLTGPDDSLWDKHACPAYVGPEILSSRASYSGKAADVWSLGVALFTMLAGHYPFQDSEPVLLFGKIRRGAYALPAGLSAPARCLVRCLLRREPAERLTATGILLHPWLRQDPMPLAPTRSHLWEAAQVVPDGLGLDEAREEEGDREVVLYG
Assay: SPR binding kinetics of peptides to TRIB3 (BIAcore T200)
Conditions: in words
Method: Peptide Ae, alanine mutants of Ae (M1-M13), Pep2–con and Pep2–Ae were synthesized by Guoping Pharmaceutical, Co. (China). The Surface plasmon resonance binding kinetics between TRIB3 and the indicated peptides were analyzed by using a BIAcore T200 system (GE Healthcare)[14]. Briefly, TRIB3-GST protein (Sino, China) was immobilized onto four individual flow cells in a CM5 sensor chip (GE Healthcare) through a standard coupling protocol. To measure the binding kinetics, the indicated peptide (2.5~0.009 μM in 2-fold serial dilutions) and a buffer blank for baseline subtraction were sequentially injected, with a regeneration step (glycine, pH 2.5) inserted between each cycle. The equilibrium dissociation constant (KD) was calculated according to BIA-evaluation software.

interaction with TRIB3 of control peptide (authors' reply to reviewers)	Substance	binding affinity with TRIB3, rank among α-helical peptides (SPR, series of α-helical peptides of AKT1 catalytic domain)
	Ae: α-helical peptide which mimics the AKT1 191–204 α-helical region (EVAHTLTENRVLQN; UniProt P31749 191-204, looked up, fragment)	displayed the best binding affinity with TRIB3 among all the α-helical peptides analyzed
no interaction with TRIB3	AAHTAAENRV AAA [Pep2–con, reference compound]	
